Test results taken from the supplement of paper PMC9170038.

Test system: MS2 coat protein
Experiment: apparent KD of MS2 coat protein; higher = weaker reporter binding
Settings: Eterna round: R107
Protocol: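 RNA-MaP round R107: designed RNA switches with theophylline, tryptophan, arginine or FMN aptamers are transcribed on-chip within common flanks. They are titrated with SNAP-549-labelled MS2 coat protein in RNA-MaP buffer (100 mM Tris pH 7.5, 80 mM KCl, 4 mM MgCl2), without ligand or with the indicated ligand. Median apparent KD per design.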

[1] = input ligand: theophylline 20 uM
[2] = input ligand: theophylline 2 mM
[3] = input ligand: tryptophan 2.4 mM

ACGUCCAGGUUAAUCGUGGGCAUGGUCGAUACCAGUAUUUUAAUCUACCCUUGGCAGCGACAUGAGGAUCACCCAUGUGCGAUGA [XTheo A #16]
apparent KD of MS2 coat protein (input ligand: arginine 13.2 mM): 13.8 nM | apparent KD of MS2 coat protein (input ligand: none): 16.4 nM | apparent KD of MS2 coat protein [1]: 17.9 nM | apparent KD of MS2 coat protein [2]: 40.1 nM | apparent KD of MS2 coat protein [3]: 16.9 nM

ACGUCCCGUUUACUCGUGGGUUAGGUCGAUACCAGUAUUCAAACUUACCCUUGGCAGCGACAUGAGGAUCACCCAUGUGCGAAGA [XTheo A #22]
apparent KD of MS2 coat protein (input ligand: arginine 13.2 mM): 19 nM | apparent KD of MS2 coat protein [1]: 22.9 nM | apparent KD of MS2 coat protein [3]: 17.5 nM

ACGUCCGGAUUACUCGUGGGCAUGGUCGAUACCAGUAUUUUAAUCUACCCUUGGCAGCGACAUGAGGAUCACCCAUGUGCGAUGA [XTheo A #20]
apparent KD of MS2 coat protein (input ligand: arginine 13.2 mM): 21.5 nM | apparent KD of MS2 coat protein (input ligand: none): 20.5 nM | apparent KD of MS2 coat protein [1]: 41.6 nM | apparent KD of MS2 coat protein [2]: 41.3 nM | apparent KD of MS2 coat protein [3]: 21.8 nM

ACUUCGCAUAGGAAAACUAUGUGAAGAAAUCGAGGACCGGUACGGCCGCCACUCGUCCUCAACAUGAGGAUCACCCAUGUAAUAA [Mat - Exclusion - Trytophan A - D5]
apparent KD of MS2 coat protein (input ligand: arginine 13.2 mM): 21 nM | apparent KD of MS2 coat protein [1]: 24.3 nM | apparent KD of MS2 coat protein [2]: 23.9 nM

AGAAUAUAGUCGGCCGCCACUCUACAAACAUGAGGAUCACCCAUGUUCACAUAGUGGAAACACAUGAGGACCGGGACAUAGGCAU [#17 Same State - Tryptophan B]
apparent KD of MS2 coat protein (input ligand: arginine 13.2 mM): 14 nM | apparent KD of MS2 coat protein [1]: 21.4 nM | apparent KD of MS2 coat protein [2]: 18.3 nM

AGAUUCGACACGGCCGCCACUUGUGGUGGAUUAUCCUAUGUAAGACAUGAGGAUCACCCAUGUACAAGGACCGGGUGUUGAGUCU [XTryp B #22]
apparent KD of MS2 coat protein (input ligand: arginine 13.2 mM): 108 nM | apparent KD of MS2 coat protein [1]: 336 nM | apparent KD of MS2 coat protein [2]: 385 nM

AGCACUGUGACGGCCGCCACUACAUAAGAUGGGUGGUCAGGUUCAUUACAUGAGGAUCACCCAUGUAGGACCGGGUCUCAGUGCA [Omei Trp Exc B A v10]
apparent KD of MS2 coat protein (input ligand: arginine 13.2 mM): 7.97 nM | apparent KD of MS2 coat protein (input ligand: none): 9.29 nM | apparent KD of MS2 coat protein [1]: 16.5 nM | apparent KD of MS2 coat protein [2]: 10.9 nM | apparent KD of MS2 coat protein [3]: 7.71 nM

AGCACUGUGACGGCCGCCACUACAUAUAGGGUGGUCAGGUUCAUAAUACAUGAGGAUCACCCAUGUAGGACCGGGUCUCAGUGCA [Omei Trp Exc B A v5]
apparent KD of MS2 coat protein (input ligand: arginine 13.2 mM): 12.5 nM | apparent KD of MS2 coat protein [1]: 14.6 nM | apparent KD of MS2 coat protein [2]: 14.6 nM

AGCAUGUUCAGAAGGAGCGUGCAAGGGUACAUUCGUAGGACAUGAGGAUCACCCAUGUAAGCACAGGUAGGUCGCUGGACAUGCU [Arg B SS t5]
apparent KD of MS2 coat protein (input ligand: arginine 13.2 mM): 71.1 nM | apparent KD of MS2 coat protein (input ligand: none): 98.7 nM | apparent KD of MS2 coat protein [1]: 82.4 nM | apparent KD of MS2 coat protein [2]: 129 nM | apparent KD of MS2 coat protein [3]: 107 nM

AGCCACUCGAGUGAUCCUCACGAGUGGCUACGAGGACCGGUACGGCCGCCACUCGAAUUAACAUGAGGAUCACCCAUGUAAUCUA [Brourdmod07]
apparent KD of MS2 coat protein (input ligand: arginine 13.2 mM): 22.5 nM | apparent KD of MS2 coat protein [1]: 227 nM | apparent KD of MS2 coat protein [2]: 196 nM

AGCCAUGGAAACAUGGCGGCGGCAUGAGCGCGAGGACCGGUACGGCCGCCACUCGGGCAACAUGAGGAUCACCCAUGUUCCUCAU [ETA NP+V+V2 #20 +-Same Structure]
apparent KD of MS2 coat protein (input ligand: arginine 13.2 mM): 62.5 nM | apparent KD of MS2 coat protein (input ligand: none): 101 nM | apparent KD of MS2 coat protein [1]: 140 nM | apparent KD of MS2 coat protein [2]: 158 nM | apparent KD of MS2 coat protein [3]: 363 nM

AGCCCGGGAGCGGCCGCCACUGGAGGCUUAGCGCGACAUGAGGAUCACCCAUGUGUGCCCGGCGUUAGGACCGGGCUCGCGUGGU [#1 Same State - Tryptophan B Attempt #22 (HarryS)]
apparent KD of MS2 coat protein (input ligand: arginine 13.2 mM): 15.3 nM | apparent KD of MS2 coat protein (input ligand: none): 31.2 nM | apparent KD of MS2 coat protein [1]: 52.7 nM | apparent KD of MS2 coat protein [2]: 46.1 nM | apparent KD of MS2 coat protein [3]: 35.2 nM

AGCCCUGUACUAGAUACCAGCUACAUGAGGAUCACCCAUGUACGAUAAGACUGUCCAUGUAGCCCUUGGCAGCUGCUCGCAUGUA [#13 Exclusion-TheophyllineB]
apparent KD of MS2 coat protein (input ligand: arginine 13.2 mM): 24.1 nM | apparent KD of MS2 coat protein [1]: 41.3 nM | apparent KD of MS2 coat protein [3]: 29.2 nM

AGCCGGAUUACGGCCGCCACUGUAGACGUGACGAAAGUCGCGUCAACAUGAGGAUCACCCAUGUACAGGACCGGGUGGUCCGGCA [Omei Trp B SS A v3]
apparent KD of MS2 coat protein (input ligand: arginine 13.2 mM): 7.09 nM | apparent KD of MS2 coat protein (input ligand: none): 9.61 nM | apparent KD of MS2 coat protein [1]: 11.2 nM | apparent KD of MS2 coat protein [2]: 8.87 nM | apparent KD of MS2 coat protein [3]: 8.97 nM

AGCCUAUUACAUGAGGAUCACCCAUGUGAUACCAGUCAGGAAACUGACCCUUGGCAGCGCAUGAGGAUCACCCAUGCGCGAGGCA [Omei Theo A Exc A v4]
apparent KD of MS2 coat protein (input ligand: arginine 13.2 mM): 10.1 nM | apparent KD of MS2 coat protein [1]: 12.9 nM | apparent KD of MS2 coat protein [3]: 10.6 nM

AGCGACAUGCAUGAUACCAGCUACAUGAGGAUCACCCAUGUACGUCAGUAAUGACUGUGUAGCCCUUGGCAGCAUAAAGCAUGUC [Exclusion - Theophylline B (Freestyle 17)]
apparent KD of MS2 coat protein (input ligand: arginine 13.2 mM): 22.8 nM | apparent KD of MS2 coat protein [1]: 44.5 nM | apparent KD of MS2 coat protein [3]: 26.5 nM
